According to the supplement of paper PMC12042874:
± gives the uncertainty stated by the source.

Test: amyloid nucleation score (Sup35N fusion, yeast selection) (log enrichment); library NNK1; higher = more nucleation; inactive = no reads after selection
How it was run: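 Peptides of 20 random codons, each fused to Sup35N, were expressed in psi-negative yeast. Cells were induced with 100 μM copper sulfate for 24 hours and grown 7 days at 30°C on medium lacking adenine and uracil, and plasmid inserts before and after selection were Illumina-sequenced. Nucleation scores are DiMSum log enrichments of output over input reads, centred on the mode score of non-aggregating sequences, and sequences under 100 input reads were excluded.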

In order of rising amyloid nucleation score:
1. IYVRGRMRVMGARH  -1.26 ± 1.5
2. IYTVVRAVCMGPGSGWLFRK  -1.05 ± 1.2
3. KVCFPY  -1.03 ± 0.4
4. KCGIVVNVQHRKPRGRIPAQ  -1.02 ± 0.67
5. LCGSVRFRTGLECKQPSSCI  -1.02 ± 2.7
6. KKGLSKMVKPVYSCLN  -1 ± 1.6
7. IVVFQ  -0.887 ± 1.8
8. IWLDCIGRYSGVYRHVINDV  -0.863 ± 0.37
9. KNRRSCIMNIGRYWRVQMVI  -0.846 ± 0.68
10. LCLGHRH  -0.818 ± 1.6
11. IWGDKIHGFHGVIMMQSGMV  -0.762 ± 0.71
12. KWVDEECFDFMKGGF  -0.756 ± 0.73
13. KHLYVR  -0.752 ± 0.56
14. KWIRRRTDIFELSRLVWMGW  -0.694 ± 0.58
15. KSAYVANRGCRRLYGVHNKM  -0.647 ± 0.71
16. LCRIKGHRFIQVDTGEAVWS  -0.629 ± 0.61
17. KVGYLYEAIGGKDDL  -0.605 ± 1.1
18. KKYVRGWGAFLAMQHGGMM  -0.604 ± 0.6
19. LFCHPSFYINGMWSLGGSGG  -0.578 ± 0.66
20. KTCSQSEKM  -0.562 ± 0.3
21. KYFYMMTAYRRWRRDPYLGG  -0.54 ± 0.62
22. KVYIIFVRGEDAFKLRGAAN  -0.529 ± 1.5
23. LAWIGFRYRDGMKYGVHWGR  -0.522 ± 1.2
24. KLSGMIAEMRAGPCTYRILY  -0.511 ± 0.45
25. IVGKQSVLYYDSVFVTWMYK  -0.509 ± 0.3
26. KAFLTRRFLNLYVRIKPYMV  -0.503 ± 0.3
27. KLSNEYW  -0.485 ± 0.36
28. KGHRCNIVTTNTAPRFPW  -0.482 ± 0.91
29. ITYKLFVISCNEKRNLICHN  -0.477 ± 0.32
30. KRTLGTRGRIQVKSCPVGEL  -0.467 ± 0.35
31. KYKDFLGSISDLDWII  -0.464 ± 1.4
32. KMMPWVLLGRKLRLWRLCTK  -0.463 ± 0.56
33. KNFAVRWNPVTSDWFVTLSV  -0.429 ± 0.4
34. KIMLSRMYNQYMGCQVKFW  -0.409 ± 0.51
35. LCRILGSSPVHNLWLWGHGY  -0.363 ± 1.4
36. KIDGRPVHIPRFRYDNDNKV  -0.359 ± 0.47
37. KTSNKWMIKRNYRAYGHCSV  -0.357 ± 0.37
38. KSPRFASTYPLSSSYSLRVI  -0.327 ± 0.28
39. KGRVKGSVASSLS  -0.309 ± 0.57
40. LDIVCLPKFVVWTDTV  -0.301 ± 0.56
41. KSLVVACDVYSNALLRVMFR  -0.291 ± 0.26
42. LFCTTSVDNKGPVRLPLVCV  -0.282 ± 1.7
43. IVPAEAVLRRLQRFLRWLVV  -0.245 ± 1.1
44. KGTCCPPLPVILDIMEDSSR  -0.227 ± 0.38
45. KNHYYFA  -0.203 ± 0.38
46. IYMMECEVL  -0.157 ± 0.42
47. LCNKVWFAECQIHSRQG  -0.144 ± 0.83
48. IYMYIVNRRVTGSFRF  -0.136 ± 0.23
49. KVDLLA  -0.13 ± 0.56
50. ITRSWLT  -0.12 ± 0.3
51. KMSGTLQ  -0.115 ± 1.4
52. LFDWWCFEKYLICRVGSLTF  -0.091 ± 0.51
53. KSSWSSAS  -0.076 ± 0.3
54. KLPRTCAPLYHMLTHGVGHR  -0.075 ± 0.72
55. LEMCLQDVIDGSGQGQNEWG  -0.074 ± 0.7
56. IYFFIPFSPVGDTDRSFWGY  -0.059 ± 0.98
57. KLLSGGVNTWRPTGTSRLEI  -0.053 ± 0.46
58. KLQVGSPN  -0.053 ± 1.4
59. KVHPYEMDENYNPSRCYSSS  -0.049 ± 0.48
60. IYCGNSEF  -0.048 ± 0.79
61. KRNLRVHSTGIFRYRIWKA  -0.047 ± 0.48
62. LAFKGAITPSDFGLNNRYRF  -0.037 ± 1.4
63. IYWRILEL  -0.034 ± 0.85
64. KIMCELCNSVRNALWRTLRG  -0.01 ± 0.71
65. KYRVSLNFRWRFRLMISHNG  -0.002 ± 0.4
66. KLVLRGVFIIDFWSNARRAS  0 ± 0.29
67. KELKYCVFALVVAD  0.012 ± 0.63
68. KNVARVHMQCLPAYVLGRNH  0.018 ± 0.66
69. KELCCRASSDLMLRWQVKVF  0.027 ± 1.4
70. KWGLGFFDWKMKYHFRCYKC  0.033 ± 0.56
71. KAGRGICESYRSFHPRPVFA  0.034 ± 0.4
72. IVLRDFHGLSWAWSLIVHVK  0.039 ± 0.88
73. LDMTTTLLVSLESDG  0.04 ± 0.73
74. LDLSNDGRFYKGREGAISCR  0.049 ± 0.31
75. LESQNHTFLRFIPKAALRIL  0.067 ± 0.47
76. ITPGLVAPSPDTKCSACDIL  0.074 ± 0.34
77. KITHLFFKSSYVIVKLLYVI  0.082 ± 0.51
78. LCFMILNGGRQSQAQKDSYV  0.086 ± 0.4
79. KMLVGHS  0.087 ± 0.83
80. KVSENLPRMPANLLTI  0.09 ± 0.44
81. KYYYWRRVPVCQKGDLF  0.095 ± 0.31
82. LATAEASRNYVGYFGWSFMN  0.098 ± 1.1
83. KDQTTYMDCFV  0.101 ± 0.49
84. IYRLTCETEVRCGTFNDIVD  0.105 ± 0.21
85. KLTQKCHKCLH  0.107 ± 0.68
86. LFCIERWMSNCFG  0.112 ± 0.75
87. IWQFDWPHRGIEMRVRRDMT  0.135 ± 0.69
88. IYYMYYLYHYWMILRENDFM  0.151 ± 0.21
89. LFALQGHGILSVHSFVRHWG  0.165 ± 1.1
90. LCDFKTSEVPSEGTFWSVLA  0.181 ± 0.51
91. KLFESYVLSRGMVPETVKAV  0.226 ± 0.78
92. IVLDT  0.227 ± 0.29
93. LETRLVYLWENLPLAQTNVA  0.238 ± 0.48
94. LDWSMLRTELVIGILRSGRE  0.248 ± 0.52
95. LCTFIVWKMPICPMWWGW  0.255 ± 0.2
96. IVENARWKVAAEPRNRRSSV  0.273 ± 0.58
97. KQFDTSGLNVRRSCNRSRHM  0.301 ± 0.56
98. LAAST  0.311 ± 0.4
99. LASGRRPSQPGVRRVAKTTG  0.392 ± 0.34
100. KKMIFTVVVECSKLWPLRVV  0.399 ± 0.69
101. KQRIFEMLPWGPRPLYPVWG  0.405 ± 0.43
102. KYMTDIIT  0.413 ± 0.2
103. LAWSEYLMCLTRCHPIAV  0.414 ± 0.54
104. KSFACYNKDQ  0.423 ± 0.99
105. KVSYRMRASPRSKILVIRKS  0.43 ± 0.72
106. LCAEN  0.48 ± 0.52
107. IYLCLATYFLYPRLVWTSTL  0.521 ± 0.72
108. IYLKWHFADY  0.529 ± 0.45
109. KVSPIMDEN  0.547 ± 0.37
110. KRERGKISIEEAMRQAGQRS  0.578 ± 0.7
111. LALMEEPLVLDNGSLDTKLS  0.579 ± 1.1
112. KHICTAFRSVEFAEGIR  0.658 ± 0.46
113. KLALRKGSRDVH  0.661 ± 0.97
114. KMYLLRIQ  0.661 ± 0.82
115. LDRYVRFEIRS  0.661 ± 0.56
116. LEAKSAGRVACQHGVALRVG  0.674 ± 0.47
117. LAVKEL  0.678 ± 0.54
118. LECSNSNLWCTPN  0.712 ± 0.69
119. KVNFSSSLGCVN  0.713 ± 0.85
120. KVLLR  0.725 ± 0.36
121. LDHLVNDTVEILQYGAPSIH  0.733 ± 0.88
122. IWDASKVGSYAELHTLM  0.744 ± 0.33
123. LDRTVWH  0.757 ± 0.34
124. KLYGLVFFLVYGNDGSKRDL  0.779 ± 0.36
125. KSRSRLPCTRSHTIEFVRMR  0.831 ± 0.56
126. IYFVIDCN  0.835 ± 0.56
127. LCGGWLMGAGRFDGR  0.862 ± 0.54
128. KDICY  0.864 ± 0.51
129. KVSYCSSGYLTSLTWRFLLI  0.888 ± 0.28
130. LDNRCKIRMVMMHSPRALRV  0.893 ± 0.81
131. KFIEMRRNKSPKHLPAWASD  0.911 ± 0.54
132. KFMLWPNIWMN  0.916 ± 0.54
133. KLFDYAVYLC  0.936 ± 0.5
134. LAHVFWRIDWMDKWGYNGDA  0.992 ± 0.26
135. LDVKSYAQVKRFSWSHSAFM  1.07 ± 0.4
136. LDLVTGL  1.1 ± 0.66
137. IVGMASRCRGFR  1.11 ± 0.71
138. KMIPMTYASKVLKCRLFEVK  1.14 ± 0.76
139. KHCRVSPNVSECAFKGAMCL  1.17 ± 0.63
140. KRYDLRLKMMTTPI  1.29 ± 0.41
141. LDMECYYSIYRSESNVCMWI  1.31 ± 0.93
142. KRVLCSTCIHRLCPKSGGDC  1.33 ± 0.68
143. KRVCLFLGSWNRHHLLGLFG  1.41 ± 0.84
144. KIKVPRIVLVCKCILFNNLW  1.51 ± 0.34
145. IVWESLFNKFAITVGMLGFM  1.63 ± 0.43
146. LDCINRERYIHFMR  1.92 ± 0.5
147. IYFGFCRD  2.02 ± 0.089
148. KFYSMKTSNFWCI  2.04 ± 0.18
149. KFDPVKQYLCMYFFTYQIES  2.06 ± 0.15
150. KMRKIDAR  2.63 ± 0.11
151. ITSIANFLWIL  3.03 ± 0.069
152. ITYKSFYHIQCFSGTSCKRF  3.1 ± 0.11
153. IYLMIGHWESNNKLNICVLP  3.7 ± 0.11
154. KSKLMNKQFSRLTLVSTESR  3.86 ± 0.13
155. IWCVFIQWLCSRRVERQSCR  4.31 ± 0.11
156. KLFLLGAINGQFI  4.87 ± 0.066
157. LFCKSPCYFVMLADKMHIWG  5.07 ± 0.11
158. LESHSNTINIGCKNFGCNRG  5.38 ± 0.073
159. KNFWKGVLYSIRCHNQWNVG  5.41 ± 0.092
160. KILCMSCFTNSYHARWTFIL  5.694 ± 0.051
161. IYMCIGWQ  7.268 ± 0.044
162. KMAYRVVNNLGCSIMCNICT  7.616 ± 0.046
163. KPMFSLGSNYKMCIYHGCFM  8.183 ± 0.061

With IWKKLITNWMAYLTLNNFAL the amyloid nucleation score was “inactive”.
In the case of IYGIMLG, the amyloid nucleation score is reported as “inactive”.
With IYIIPFDRNLYPISIHVLVR the amyloid nucleation score was “inactive”.
For KFFLRNGVAGTTVLLVQGLQ, the amyloid nucleation score was “inactive”.
For KGKECKRFLVNTKIGSNRT, the amyloid nucleation score was “inactive”.
With KGVHGYCRRIM the amyloid nucleation score was “inactive”.
For KLARTMGYTGTSMVACFCVV, the amyloid nucleation score was “inactive”.
For LAGGVHLRPHERKEFLD, the amyloid nucleation score was “inactive”.
For LCFGYKLIAKECVCAGRTES, the amyloid nucleation score was “inactive”.
With LEQFMTRYRSDIVYCCDSGS the amyloid nucleation score was “inactive”.
